This passage reports decrease in Luc activity of CmCDM111Lpro:Luc in chrysanthemum protoplasts (dual-luciferase), CmTCP7, CmFTL3 and CmFDL1 co-transfected against CmFTL3 and CmFDL1 results from paper PMC12099206.

Test [1] addresses CmFDL1 expressed in chrysanthemum protoplasts (Chrysanthemum morifolium).
Test [2] has as its target CmFTL3 expressed in chrysanthemum protoplasts (Chrysanthemum morifolium).

On to “CmTCP7 expressed in chrysanthemum protoplasts (natural protein)”, for which the decrease in Luc activity of CmCDM111Lpro:Luc in chrysanthemum protoplasts (dual-luciferase), CmTCP7, CmFTL3 and CmFDL1 co-transfected against CmFTL3 and CmFDL1 in test [1] and in test [2] was 80% throughout.
